Laboratory results published in patent US20050070001A1, “Xylosyltransferase and isoforms thereof” (priority 1999, published 2005).
Each block holds one molecule with its values, some of them ahead of it.

Legend:
recombinant XT-I = target: T1, recombinant XT-I (Homo sapiens, UniProt Q86Y38); test: XT activity assay of recombinant XT-I expressed in CHO-K1 cells with different acceptors and with heparin; type: biochemical; conditions: for XT Activitiy pCG227-XT: recombinant XT-I from CHO-K1 cells, immunoprecipitated on beads, named acceptor, without heparin, n.d. = not detected (detection limit 20 μU/l)
T1 construct: polyhistidine leader of vector pcDNA4/HisMax-TOPO (own knowledge of the vector); made in house; host or cells: CHO-K1, transient transfection with pCG227-XT-I
T1 sequence (Q86Y38 148-959): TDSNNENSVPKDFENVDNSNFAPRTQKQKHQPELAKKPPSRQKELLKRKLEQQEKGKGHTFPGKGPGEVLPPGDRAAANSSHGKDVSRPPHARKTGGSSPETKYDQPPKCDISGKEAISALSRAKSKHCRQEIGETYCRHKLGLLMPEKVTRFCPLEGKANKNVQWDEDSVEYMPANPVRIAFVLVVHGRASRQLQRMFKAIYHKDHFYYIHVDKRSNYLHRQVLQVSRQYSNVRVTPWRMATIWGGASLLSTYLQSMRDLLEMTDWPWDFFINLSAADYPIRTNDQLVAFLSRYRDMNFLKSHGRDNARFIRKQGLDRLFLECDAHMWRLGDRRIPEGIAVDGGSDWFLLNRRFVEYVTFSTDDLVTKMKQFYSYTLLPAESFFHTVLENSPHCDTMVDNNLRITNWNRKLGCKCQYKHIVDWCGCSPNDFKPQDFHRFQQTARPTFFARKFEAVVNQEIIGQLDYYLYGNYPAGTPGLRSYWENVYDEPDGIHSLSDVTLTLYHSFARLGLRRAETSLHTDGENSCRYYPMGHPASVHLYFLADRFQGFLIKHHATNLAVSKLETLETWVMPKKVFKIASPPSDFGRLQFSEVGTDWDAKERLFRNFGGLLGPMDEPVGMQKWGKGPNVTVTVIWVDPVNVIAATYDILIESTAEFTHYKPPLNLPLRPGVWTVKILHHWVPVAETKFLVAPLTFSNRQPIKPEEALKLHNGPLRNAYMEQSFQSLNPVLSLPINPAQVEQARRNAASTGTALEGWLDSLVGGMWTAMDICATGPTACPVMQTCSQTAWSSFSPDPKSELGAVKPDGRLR
From the text: The degenerate primers PFF-sense and Lysc-inv1 which were designed upon the amino acid sequence of proteolytic cleaved peptides of human XT-I were used in a PCR reaction with first strand cDNA of placenta poly(A)^+ mRNA as template. […] To clone the complete coding sequence of the novel cDNA, the RACE strategy was employed. The cDNA finally obtained was 3608 bp (FIG. 8A) and contained a single open reading frame encoding a protein of 865 amino acids with a molecular mass of 97.000. The 3′-untranslated region is 850 bp and a 5′-untranslated region of 149 bp was identified with an in-frame stop codon upstream of the ATG codon. […] No detectable XT activity was recovered by the affinity purification from a control transfection sample. The substrate specificity of the recombinant XT-I was similar to that of the XT-I isolated from human body fluids and cell culture supernatants.
Determination of XT activity. Determination of XT activity is based on the incorporation of [14C]-D-xylose into the recombinant bikunin according to a previously described method (Brinkmann et al., 1997, J. Biol. Chem., 272, 11171-11175). For analysis of the substrate specificity of the recombinant xylosyltransferases synthetic peptides containing the XT recognition sequence were used as acceptor. The reaction mixture for the assay contained, in a total volume of 100 μl: 50 μl of XT solution, 25 mM 4-morpholineethanesulfonic acid (pH 6.5), 25 mM KCl, 5 mM KF, 5 MM MgCl2, 5 mM MnCl2, 1.0 μM UDP-[^14C]-D-xylose, and 1.5 μM of the synthetic peptides. After incubation for 75 min at 37° C., the reaction mixtures were placed on discs (25 mm diameter) of Immobilon-AV membrane, which immobilizes even small peptides by covalent links (Pfund & Bourdage, 1990, Mol. Immunol. 27, 495-502), and allowed to dry. It was then washed for 10 min with 10% trichloroacetic acid and three times with 5% trichloroacetic acid solution. Incorporated radioactivity was determined by liquid scintillation counting.
Transfection and transient expression of XT. For construction of a eukaryotic expression vector a DNA fragment including the known coding sequence of XT-I cDNA was amplified by PCR using XT_Exp1L 5′-[…]-3′ and XT_Exp3U 5′-[…]-3′ as primers and placenta first-strand cDNA (Clontech) as template. The 2450 bp fragment obtained was cloned into the vector pcDNA4/HisMax-TOPO (Invitrogen) resulting in the fusion of XT-I to the Xpress epitope. The plasmid pCG227-XT-I was then transiently transfected into CHO-K1 cells. The coding region of the XT-II cDNA was amplified by PCR using the primers AB_Exp9U 5′-AAAGGAAGGCAGAGGAAGC-3′ and AB_Exp3L 5′-ACCCCTCCACTGT-CTGTAAG-3′ and placenta first-strand cDNA as template. The obtained 2440 bp DNA fragment was cloned into the expression vector pcDNA4/HisMax-TOPO resulting in the fusion of XT-II to the aminoterminal Xpress epitope. The plasmid termed pCG226-XT-II was transiently transfected into CHO-K1 cells. 2×10^5 cells precultured for 1 day in a 35 mm diameter cell culture dish were transfected with 2 μg of plasmid DNA and 6 μl of Fugene 6 transfection reagent (Roche, Mannheim, Germany). For determination of transfection efficiency CHO-K1 cells were transfected with 2 μg of the control plasmid pcDNA4/HisMax-TOPO-lacZ. 48 h after transfection the cell culture medium was harvested. Protein G agarose beads (Sigma, Deisenhofen, Germany) and mouse anti-Xpress monoclonal antibody (Invitrogen) were added to the cell culture supernatant and incubated at 4° C. for 1 h. […]

XT [1] = test: Effect of protamine chloride added to the XT assay solution; type: biochemical, human
From the text: UDP-D-xylose: proteoglycan core protein β-D-xylosyltransferase can be isolated and purified from JAR choriocarcinoma cell culture. The isolated protein according to the invention is a single stranded polypeptide with a molecular weight of 120.000. The protein was enzymatically cleaved and eleven peptide fragments were sequenced by Edman degradation (see Examples). XT is present only in very small amounts in animal tissues but unlike other glycosyltransferases, more than 90% of XT is enriched in the medium of cultured cells. The highest secretion of XT activity was measured in JAR choriocarcinoma cell culture, in which sternal cartilage chondrocytes and 21 different human cell lines were examined. To produce a highly enriched XT solution for the isolation of XT, JAR choriocarcinoma cells were adapted to hollow fiber culture conditions using a novel bioreactor (TECNOMOUSE) and Ultradoma-PF medium without serum addition as nutrient. For purification of XT a combination of classic separation methods and new affinity matrices was employed. Therefore, a heparin matrix was used as an affinity ligand for the XT. […]
Determination of XT activity. […] Incorporated radioactivity was determined by liquid scintillation counting.

[2] = Storage stability of purified XT enzyme activity; type: physicochemical; conditions: purified XT after protamine affinity chromatography, stored at −75° C.
Protocol: Step 4: Affinity chromatography on protamine chloride The product of step 3 was desalted and concentrated using dia- and ultrafiltration. […] Additional proteins were eluted with buffer A containing low NaCl concentrations. Enzyme activity was eluted at approximately 0.15 M NaCl (FIG. 1C). The enzyme activity was stable for at least 6 months at −75° C.
Step 4: Affinity chromatography on protanine chloride—XT-containing solution from step 3 was desalted as described above and concentrated to 5 ml by ultrafiltration with YM1 cellulose membranes. The ultrafiltration product was passed through a 0.2 μm filter. 100 μl of the filtrate was loaded onto a protamine chloride—POROS column (4.6×50 mm) equilibrated with buffer A. The flow rate was 10 ml/min. The column was washed with 10.0 ml of buffer A, and the adsorbed fraction was eluted with the same buffer containing NaCl by a stepwise increase of the NaCl concentration: 6.6 ml buffer A/0.04 M NaCl; 6.6 ml buffer A/0,06 M NaCl; 6.6 ml buffer A/0.23 M NaCl followed by a linear gradient of 0.23-1.20 M NaCl (4.2 ml) in buffer A. Fractions of 6.0 ml were collected, assayed for XT activity and evaluated by SDS-PAGE. Cyclic chromatography was repeated 50 times. The purified enzyme was collected, concentrated to 1.0 ml using ultrafiltration techniques and stored at −75° C.

XT [3] = conditions: cited from earlier work

inhibition of enzyme activity of recombinantly expressed XT-I (recombinant XT-I; addition of 250 U of heparin): completely inhibited
Molecule: heparin

XT Activitiy pCG227-XT (recombinant XT-I): 492 μU/l
Molecule: TENEGSGLTNIK [L-APP peptide TENEGSGLTNIK, synthetic L-APP homologous peptide used as XT acceptor]

XT Activitiy pCG227-XT (recombinant XT-I): 2854 μU/l
B2: Recombinant bikunin: recombinant bikunin, the inhibitory component of human inter-α-trypsin inhibitor; XT acceptor protein (protein, UniProt P02760 206-352, looked up)
Inter-alpha-trypsin inhibitor …: AVLPQEEEGSGGGQLVTEVTKKEDSCQLGYSAGPCMGMTSRYFYNGTSMACETFQYGGCMGNGNNFVTEKECLQTCRTVAACNLPIVRGPCRAFIQLWAFDAVKGKCVLFPYGGCQGNGNKFYSEKECREYCGVPGDGDEELLRFSN
modifications: Inter-alpha-trypsin inhibitor light chain recombinant
notes: XT acceptor protein
Km (XT [3]; enriched XT preparation from conditioned cell culture supernatant of human chondrocytes, read-out: Michaelis-Menten (Km) constant for in vitro xylosylation): 22 µM
decrease of Km in comparison to deglycosylated core protein from bovine cartilage (XT [3]; enriched XT preparation from human chondrocytes): 9 fold

Further lines, the molecule ahead of its results:

Molecule: QEEGSGGGGQK [Bikunin peptide QEEGSGGGGQK, synthetic bikunin homologous peptide used as XT acceptor]
XT Activitiy pCG227-XT (recombinant XT-I): 463 μU/l

Molecule: protamine chloride
effect on XT activity (XT [1]): increased XT activity

Molecule: SENEGSGMAEQK [L-APLP2 peptide SENEGSGMAEQK, synthetic L-APLP2 homologous peptide used as XT acceptor]
XT Activitiy pCG227-XT (recombinant XT-I): 515 μU/l

B1: UDP-D-xylose:proteoglycan core protein β-D-xylosyltransferase (protein, UniProt Q86Y38 1-959, looked up)
Xylosyltransferase 1: MVAAPCARRLARRSHSALLAALTVLLLQTLVVWNFSSLDSGAGERRGGAAVGGGEQPPPAPAPRRERRDLPAEPAAARGGGGGGGGGGGGRGPQARARGGGPGEPRGQQPASRGALPARALDPHPSPLITLETQDGYFSHRPKEKVRTDSNNENSVPKDFENVDNSNFAPRTQKQKHQPELAKKPPSRQKELLKRKLEQQEKGKGHTFPGKGPGEVLPPGDRAAANSSHGKDVSRPPHARKTGGSSPETKYDQPPKCDISGKEAISALSRAKSKHCRQEIGETYCRHKLGLLMPEKVTRFCPLEGKANKNVQWDEDSVEYMPANPVRIAFVLVVHGRASRQLQRMFKAIYHKDHFYYIHVDKRSNYLHRQVLQVSRQYSNVRVTPWRMATIWGGASLLSTYLQSMRDLLEMTDWPWDFFINLSAADYPIRTNDQLVAFLSRYRDMNFLKSHGRDNARFIRKQGLDRLFLECDAHMWRLGDRRIPEGIAVDGGSDWFLLNRRFVEYVTFSTDDLVTKMKQFYSYTLLPAESFFHTVLENSPHCDTMVDNNLRITNWNRKLGCKCQYKHIVDWCGCSPNDFKPQDFHRFQQTARPTFFARKFEAVVNQEIIGQLDYYLYGNYPAGTPGLRSYWENVYDEPDGIHSLSDVTLTLYHSFARLGLRRAETSLHTDGENSCRYYPMGHPASVHLYFLADRFQGFLIKHHATNLAVSKLETLETWVMPKKVFKIASPPSDFGRLQFSEVGTDWDAKERLFRNFGGLLGPMDEPVGMQKWGKGPNVTVTVIWVDPVNVIAATYDILIESTAEFTHYKPPLNLPLRPGVWTVKILHHWVPVAETKFLVAPLTFSNRQPIKPEEALKLHNGPLRNAYMEQSFQSLNPVLSLPINPAQVEQARRNAASTGTALEGWLDSLVGGMWTAMDICATGPTACPVMQTCSQTAWSSFSPDPKSELGAVKPDGRLR
notes: enzyme (EC 2.4.2.26) purified from JAR choriocarcinoma cell culture supernatant, MW 120.000
time for which enzyme activity was stable [2]: at least 6 months
